# Strand notation (5' to 3'): a small letter for the sugar, then the base; units joined by * are phosphorothioate-linked, units joined directly phosphodiester-linked; [ ] holds rarer units or linkages, { } end groups; capitals alone tell only the bases. {ppp} = triphosphate; r = 2'-OH (RNA); f = 2'-fluoro
# B1: 10F: 5′ppp 2′F pyrimidine ssRNA aptamer, 71 nt, human melanocytic cell-targeting, SEQ ID NO: 4 (nucleic acid)
# chain: {ppp}-rGrGrGrArGrGrAfCrGrAfUrGfCrGrGfUrAfCfCfUrGrAfCrArGfCrAfUfCfUfUrGrAfUrArAfUrGrGfUfCfCfUrAfCrGrGrArGfCfCrGfUfUfCfCrArGrAfCrGrAfCfUfCrGfCfCfCrGrA
# Tests used:
# [1] = test system: IFNβ; test: IFNβ ELISA of transfected melanoma cell supernatants; assay type: cell-based, human
# Procedure: For the intracellular delivery of immune stimulatory RNAs, RNAs were transfected with the DharmaFECT® Duo liposomal transfection reagent (Thermo Scientific, Waltham, Mass.) at a transfection reagent (μl):RNA (μg) ratio of 3.75:1, according to the manufacturer's instructions. Unless otherwise stated, for the induction of innate immune responses and apoptosis, immune stimulatory RNAs (500 ng/ml) were transfected into 50 to 70% confluent cells. Cells were incubated with an RNA-transfection agent complex for 5 h, followed by replenishment with fresh culture medium. To electroporate cells, 1×10^5 cells suspended in 200 μl Opti-MEM I (Invitrogen) were mixed with 1 μg of immune stimulatory RNAs or 5 μg of 2'Fluoro pyrimidine ribonucleoside triphosphate in 2-mm cuvettes and were electroporated at 300 V for 500 μs using an Electro Square Porator ECM 830 (BTX, San Diego, Calif.). For the knockdown of RNA-sensing PRRs, cells were transfected with PRR-specific siRNAs (25 nM) twice at 2-day intervals using DharmaFECT®-1 (Thermo Scientific). At 5 h after the second siRNA transfection, cells were harvested, replated into a 96-well plate and incubated overnight. Cells were then treated with immune stimulatory RNA transfections. Staurosporine (2 μM) (Sigma, St Louis, Mo.) and recombinant human IFNβ (20 ng/ml) (PeproTech, Rocky Hill, N.J.) were used as positive controls of anti-melanoma cytotoxicity. […] (100 ng/ml) (eBioscience, San Diego, Calif.) was added directly to the growth media of cells to neutralize IFNβ. Cells were transfected with RNAs as described above. At 24 hours after RNA transfection, culture supernatants were collected and stored at -80° C. for later analyses. The production of human IL-8 was analyzed with a human IL-8 ELISA kit (eBioscience). IFN-β production was determined with a human IFN-β ELISA kit (PBL Biomedical Laboratories, Piscataway, N.J.) by following the manufacturer's instructions.
# [2] = test system: IL-8; test: IL-8 ELISA of transfected melanoma cell supernatants; assay type: cell-based, human; settings: 0.5 μg/ml, 24 h
# Procedure: For the intracellular delivery of immune stimulatory RNAs, RNAs were transfected with the DharmaFECT® Duo liposomal transfection reagent (Thermo Scientific, Waltham, Mass.) at a transfection reagent (μl):RNA (μg) ratio of 3.75:1, according to the manufacturer's instructions. Unless otherwise stated, for the induction of innate immune responses and apoptosis, immune stimulatory RNAs (500 ng/ml) were transfected into 50 to 70% confluent cells. Cells were incubated with an RNA-transfection agent complex for 5 h, followed by replenishment with fresh culture medium. To electroporate cells, 1×10^5 cells suspended in 200 μl Opti-MEM I (Invitrogen) were mixed with 1 μg of immune stimulatory RNAs or 5 μg of 2'Fluoro pyrimidine ribonucleoside triphosphate in 2-mm cuvettes and were electroporated at 300 V for 500 μs using an Electro Square Porator ECM 830 (BTX, San Diego, Calif.). For the knockdown of RNA-sensing PRRs, cells were transfected with PRR-specific siRNAs (25 nM) twice at 2-day intervals using DharmaFECT®-1 (Thermo Scientific). At 5 h after the second siRNA transfection, cells were harvested, replated into a 96-well plate and incubated overnight. […] The production of human IL-8 was analyzed with a human IL-8 ELISA kit (eBioscience). IFN-β production was determined with a human IFN-β ELISA kit (PBL Biomedical Laboratories, Piscataway, N.J.) by following the manufacturer's instructions.
# [3] = test system: WM266-4 cells; assay type: cell-based
# Procedure: For the intracellular delivery of immune stimulatory RNAs, RNAs were transfected with the DharmaFECT® Duo liposomal transfection reagent (Thermo Scientific, Waltham, Mass.) at a transfection reagent (μl):RNA (μg) ratio of 3.75:1, according to the manufacturer's instructions. Unless otherwise stated, for the induction of innate immune responses and apoptosis, immune stimulatory RNAs (500 ng/ml) were transfected into 50 to 70% confluent cells. Cells were incubated with an RNA-transfection agent complex for 5 h, followed by replenishment with fresh culture medium. To electroporate cells, 1×10^5 cells suspended in 200 μl Opti-MEM I (Invitrogen) were mixed with 1 μg of immune stimulatory RNAs or 5 μg of 2′Fluoro pyrimidine ribonucleoside triphosphate in 2-mm cuvettes and were electroporated at 300 V for 500 μs using an Electro Square Porator ECM 830 (BTX, San Diego, Calif.). For the knockdown of RNA-sensing PRRs, cells were transfected with PRR-specific siRNAs (25 nM) twice at 2-day intervals using DharmaFECT®-1 (Thermo Scientific). At 5 h after the second siRNA transfection, cells were harvested, replated into a 96-well plate and incubated overnight. Cells were then treated with immune stimulatory RNA transfections. Staurosporine (2 μM) (Sigma, St Louis, Mo.) and recombinant human IFNβ (20 ng/ml) (PeproTech, Rocky Hill, N.J.) were used as positive controls of anti-melanoma cytotoxicity. B18R (100 ng/ml) (eBioscience, San Diego, Calif.) was added directly to the growth media of cells to neutralize IFNβ.
# Growth inhibition relative to untreated cells was quantified at 72 h after RNA transfection using an MTT Cell Proliferation Assay Kit (Cayman Chemicals, Ann Arbor, Mich.), according to the manufacturer's instructions. The percent growth inhibition was calculated by using the following equation: % growth inhibition=([O.D.]untreated−[O.D.]treated)/[O.D.]untreated×100. The induction of cell death was measured 48 h after RNA transfection by flow cytometry after staining with Annexin V-PE and 7-Aminoactinomycin D (7-AAD) using the PE Annexin V Apoptosis Detection Kit I (BD Biosciences, San Jose, Calif.) and analyzed using the CellQuest software (BD Biosciences).
molecule,measurement,setting,value
B1,"IFNβ production, fold compared to unmodified 5′ppp RNAs","[1]; 0.5 μg/ml, 24 h, ELISA",over 2 fold
same,IFNβ production after dephosphorylation of the aptamer,"[1]; aptamer treated with bacterial alkaline phosphatase (BAP), 0.125 μg/ml",partially prevented
same,"IFNβ production / induction, in words","[1]; liposomal transfection, ELISA",strong induction
same,"IL-8 production, fold compared to unmodified 5′ppp RNAs",[2],over 2 fold
same,"IL-8 production, in words",[2],strong induction
same,"cytotoxicity, fold compared to unmodified 5′ppp RNAs","[3]; 5′ppp 10F variants, 72 h, MTT",over 2 fold
same,cell death / apoptosis of melanoma cells on co-treatment with B18R,"[3]; B18R 100 ng/ml, type I IFN decoy receptor",only partially rescued
same,"growth inhibition / cytotoxicity (anti-melanoma effect), in words","[3]; liposomal transfection, 72 h, MTT","comparable to levels observed for the gold standard PRR-activating anti-cancer agent, polyI:C"

# — US10350158B2, “2′ fluoro-modified RNAs as immunostimulators” (DUKE UNIVERSITY, priority 2013, dated 2019)
